According to article PMC3686320 (Biochemistry, 2013):
Where two headings read alike, the source gives them in different places.

What was measured:
Experiment in all cases: AUC
AUC [1] = target: the molecule itself
AUC [2] = target: the molecule itself; remark: listed apart in the source
AUC [3] = target: the molecule itself; remark: listed apart in the source

B1: Escherichia coli primosomal DnaT protein, wild type (natural protein, E. coli, UniProt P0A8J2 1-179, looked up)
chain: MSSRVLTPDVVGIDALVHDHQTVLAKAEGGVVAVFANNAPAFYAVTPARLAELLALEEKLARPGSDVALDDQLYQEPQAAPVAVPMGKFAMYPDWQPDADFIRLAALWGVALREPVTTEELASFIAYWQAEGKVFHHVQWQQKLARSLQIGRASNGGLPKRDVNTVSEPDSQIPPGFRG
- stoichiometry N (AUC [1]): 3

B2: isolated N-terminal core domain of the DnaT protein (domain or fragment, E. coli, UniProt P0A8J2 1-161, looked up)
chain: MSSRVLTPDVVGIDALVHDHQTVLAKAEGGVVAVFANNAPAFYAVTPARLAELLALEEKLARPGSDVALDDQLYQEPQAAPVAVPMGKFAMYPDWQPDADFIRLAALWGVALREPVTTEELASFIAYWQAEGKVFHHVQWQQKLARSLQIGRASNGGLPKR
- stoichiometry N (AUC [2]): 2

B3: fluorescein-labeled N-terminal core domain of the DnaT variant S3C (domain or fragment, E. coli, UniProt P0A8J2 1-161, looked up)
chain: MSCRVLTPDVVGIDALVHDHQTVLAKAEGGVVAVFANNAPAFYAVTPARLAELLALEEKLARPGSDVALDDQLYQEPQAAPVAVPMGKFAMYPDWQPDADFIRLAALWGVALREPVTTEELASFIAYWQAEGKVFHHVQWQQKLARSLQIGRASNGGLPKR
modifications: fluorescein (fluorescein maleimide) on the cysteine that replaces serine 3
- stoichiometry N (AUC [3]): 2
